Experimental data reported in US9527913B2, “Humanized pan-HER antibody compositions” (Symphogen A/S, priority 2012, dated 2016).
Like-named read-outs stand apart in the source and are kept apart here.

Assays:
[1] = tested on: patient-derived xenograft models of pancreatic cancer; details: cited from earlier work
[2] = tested on: MDA-MB-175-VII cells; test: WST-1 metabolic activity, parental and pertuzumab resistant cells (Example 5); type: cell-based, human; details: 96 hours
Procedure: Cells were split once or twice a week in order to keep cells in exponential growth. The level of resistance was tested every month in a WST-1 viability assay as described in Example 2, until a pool of resistant cells was established.
Metabolic activity was determined after 96 hours incubation using a similar WST-1 assay as described in Example 2.

[3] = tested on: EGFR, HER2 and HER3 in OVCAR-8 cells; test: Western blot of EGFR, HER2 and HER3 in whole cell lysates (Example 6); type: cell-based, human; details: OVCAR-8, 20 μg/ml, 48 hour
[4] = tested on: cynomolgus EGFR; test: Kinetic binding analysis by surface plasmon resonance (ProteOn XPR36, IgG capture); details: Cynomolgus antigen
Procedure: (§1) Kinetic binding analysis of the purified humanized variants was performed on a ProteOn™ XPR36 biosensor (BioRad, USA) employing an IgG capture assay as described by Canziani et al. (Anal. Biochem. (2004) 325:301-307) that allows for measurement of antibody affinities of whole IgG molecules against soluble antigen under monovalent conditions. Briefly, approximately 5000 resonance units (RU) of a monoclonal mouse anti-human IgG Fc antibody (GE Healthcare, Denmark) was conjugated to a GLC chip surface (BioRad, USA) according to the manufacturer's instructions, followed by capture of individual antibodies of the invention or a negative control on the anti-Fc sensor surface. […] Next, 250 μl monovalent antigen (Sino Biologicals) was injected at a flow rate of 50 μl/min in serial threefold dilutions from 100 nM stock to generate response curves. The chip surface was regenerated between cycles by stripping the captured antibody/antigen complexes off the surface with a 10-second injection of 3 M MgCl2 (GE Healthcare, Denmark) repeated three times. Finally, binding responses were fitted to a Langmuir 1:1 binding model for calculation of the on-rate (kon or ka), off-rate (koff or kd) and affinity (KD) constants using double referencing.

[5] = tested on: EGFR, HER2 and HER3 in H292 cells; test: Western blot of EGFR, HER2 and HER3 in whole cell lysates (Example 6); type: cell-based, human; details: H292, 20 μg/ml, 48 hour
[6] = tested on: cynomolgus HER3; test: Kinetic binding analysis by surface plasmon resonance (ProteOn XPR36, IgG capture); details: Cynomolgus antigen
Procedure: as §1

[7] = target: T1, human HER3 (Homo sapiens, UniProt P21860); test: as above; details: Human antigen
T1 construct: against soluble antigen under monovalent conditions; purchased Sino Biologicals
Procedure: as §1

[8] = tested on: EGFR, HER2 and HER3 from humans, cynomolgus monkeys and mice, human and murine HER4; test: Cross-reactivity ELISA with coated antigens; type: binding, mouse; details: OD at 450 nm, 40 nM antibody, compared to chimeric parent
Procedure: Antibody-antigen binding was measured by ELISA with coated antigens. Human antigens were obtained from Sino Biologicals. All other antigens were produced in-house by transient expression in CHO or HEK293 cells. Chimeric and humanized antibodies, as well as an isotype control antibody, were incubated with the coated antigens at different concentrations. After wash, bound antibodies were detected by HRP-(horse radish peroxidase)-conjugated secondary antibodies. The OD signal from 40 nM antibody, measured at 450 nm using an ELISA reader, was scored from negative (−; OD<0.1) to strongly positive (+++; OD>2.5).

[9] = tested on: A431NS, H358, FaDu, OE19, BT474, MDA-MB-175 VII, MCF-7, N87, HN5, MFE-280 cancer cell lines; test: Viability assay (WST-1) of humanized variants with partner antibody and of six-antibody mixtures; type: cell-based, human; details: two cell lines per variant, 96 hours
Procedure: Each humanized variant was tested in two cell lines and compared to the parental mixture of two chimeric antibodies and to a negative control antibody. […] In addition, a combination of six humanized variants (11294, 11302, 11249, 11145, 10738 and 11052; Humanized Pan-HER) was tested in a number of cell lines and compared to the combination of the six chimeric antibodies (1277, 1565, 4384, 4517, 5038 and 5082; Chimeric Pan-HER). The cell lines used, N87 gastric, FaDu head and neck, A431NS epidermoid, OE19 esophageal, HN5 head and neck, MDA-MB-175 VII breast and MFE-280 endometrial cancer, were selected on the basis of their previously determined dependency on the HER family receptors.
Prior to performing the viability assay the appropriate antibodies and antibody mixtures were diluted to a final total antibody concentration of 100 μg/ml in appropriate media supplemented with 0.5-2% FBS and 1% P/S (penicillin/streptomycin), yielding a final total antibody concentration of 50 μg/ml in the well containing the highest antibody concentration. A threefold serial dilution of the antibodies was then performed in a 384-well plate, followed by addition of relevant numbers of cells to the experimental wells. The MCF-7 cells were also stimulated with 1 nM heregulin beta. The plates were incubated for 4 days in a humidified incubator at 37° C. WST-1 reagent (Roche Applied Science, Mannheim, Germany) was added to the plates and the plates were incubated for 1-3 h at 37° C. Plates were transferred to an orbital plate shaker for one h and the absorbance was measured at 450 and 620 nm (reference wavelength) using an ELISA reader. The percentage of metabolically active cells (MAC) is calculated as a percentage of the untreated control as follows: […]

## C#Cc1cccc(Nc2ncnc3cc(OCCOC)c(OCCOC)cc23)c1 [Erlotinib]
[1]; model ST191
  Erlotinib resistant: Yes
[1]; model ST334
  Erlotinib resistant: Yes
[1]; model ST383
  Erlotinib resistant: Yes
[1]; model ST385
  Erlotinib resistant: Yes
[1]; model STS021
  Erlotinib resistant: No
[1]; model STS058
  Erlotinib resistant: Yes
[1]; model STS059
  Erlotinib resistant: Yes

## pertuzumab
[2]; parental MDA-MB-175-VII cells
  metabolic activity: reduced
[2]; pertuzumab resistant MDA-MB-175-VII cells
  metabolic activity: unaltered

B1: MM-121: anti-HER3 treatment lane in the OVCAR-8 Western blot (antibody, chains of the INN, looked up)
heavy: EVQLLESGGGLVQPGGSLRLSCAASGFTFSHYVMAWVRQAPGKGLEWVSSISSSGGWTLYADSVKGRFTISRDNSKNTLYLQMNSLRAEDTAVYYCTRGLKMATIFDYWGQGTLVTVSSASTKGPSVFPLAPCSRSTSESTAALGCLVKDYFPEPVTVSWNSGALTSGVHTFPAVLQSSGLYSLSSVVTVPSSNFGTQTYTCNVDHKPSNTKVDKTVERKCCVECPPCPAPPVAGPSVFLFPPKPKDTLMISRTPEVTCVVVDVSHEDPEVQFNWYVDGVEVHNAKTKPREEQFNSTFRVVSVLTVVHQDWLNGKEYKCKVSNKGLPAPIEKTISKTKGQPREPQVYTLPPSREEMTKNQVSLTCLVKGFYPSDIAVEWESNGQPENNYKTTPPMLDSDGSFFLYSKLTVDKSRWQQGNVFSCSVMHEALHNHYTQKSLSLSPG
light: QSALTQPASVSGSPGQSITISCTGTSSDVGSYNVVSWYQQHPGKAPKLIIYEVSQRPSGVSNRFSGSKSGNTASLTISGLQTEDEADYYCCSYAGSSIFVIFGGGTKVTVLGQPKAAPSVTLFPPSSEELQANKATLVCLVSDFYPGAVTVAWKADGSPVKVGVETTKPSKQSNNKYAASSYLSLTPEQWKSHRSYSCRVTHEGSTVEKTVAPAECS
[3]
  EGFR, HER2 and HER3 levels in whole cell lysates: HER2 up-regulation

B2: antibody 1277: chimeric parent anti-EGFR antibody disclosed in WO 2012/059857; VH SEQ ID NO: 15, light chain SEQ ID NO: 17 (antibody)
VH: RAEVQLVESGGGLVKPGESLKLSCAASGFAFSYSDMSWVRQTPEKRLEWVAYMSSAGDVTFYSDTVKGRFTISRDNAKNTLYLQVSSLKSEDTAIYYCVRHRDVAMDYWGQGTSVTVS
light: LADVVMTQTPLSLPVSLGDQASISCRSSQSLVHSNGNTYLHWYLQKPGQSPKLLIYKVSNRFSGVPDRFSGSGSGTDFTLKISRVEAEDLGVYFCSQSTHVPTFGGGTKLEIKRTVAAPSVFIFPPSDEQLKSGTASVVCLLNNFYPREAKVQWKVDNALQSGNSQESVTEQDSKDSTYSLSSTLTLSKADYEKHKVYACEVTHQGLSSPVTKSFNRGEC
[4]
  ka: 660000 M⁻¹ s⁻¹
  kd: 0.00039 s⁻¹
[5]
  EGFR, HER2 and HER3 levels in whole cell lysates: HER2 upregulation

B3: antibody 5082: chimeric parent anti-HER3 antibody disclosed in WO 2012/059857; VH SEQ ID NO: 35, light chain SEQ ID NO: 37 (antibody)
VH: RAEVQLKESGPGLVKPSQSLSLTCSVTGYSITSAYYWNWIRQFPGNKVEWMGYIGYDGRNTYNPSLKNRISITRDTSKNQFFLKLNSLTTEDTATYYCSREGDYGYSDYWGQGTTLTVS
light: LADIVMTQATSSLSASLGDRVTVSCRASQDINNYLNWYQQKPDGTVKLLIYYTSRLQSGVPSRFSGSGSGIDYSLTISNLEQEDFVTYFCQQSETLPWTFGGGTKLELKRTVAAPSVFIFPPSDEQLKSGTASVVCLLNNFYPREAKVQWKVDNALQSGNSQESVTEQDSKDSTYSLSSTLTLSKADYEKHKVYACEVTHQGLSSPVTKSFNRGEC
[6]
  ka: 1.7e+06 M⁻¹ s⁻¹
  kd: 0.00016 s⁻¹
[7]
  ka: 910000 M⁻¹ s⁻¹
  kd: 7.3e-05 s⁻¹
[3]
  EGFR, HER2 and HER3 levels in whole cell lysates: HER2 up-regulation

B4: antibody 11052: humanized anti-HER3 antibody from chimeric parent 5082; HC SEQ ID NO: 60, LC SEQ ID NO: 61 (antibody, V domains shown)
VH: QVQLQESGPGLVKPSQTLSLTCTVSGYSITSAYYWNWIRQFPGKGVEWMGYIGYSGRNTYNPSLKNRVTISRDTSKNQFSLKLSSVTAADTAVYYCSREGDYGYSDYWGQGTLVTVSS
VL: DIQMTQSPSSLSASVGDRVTVTCRASQDINNYLNWYQQKPGKAVKLLIYYTSRLQSGVPSRFSGSGSGTDYTLTISSLQPEDFATYFCQQSETLPWTFGQGTKLEIK
[6]
  ka: 1.3e+06 M⁻¹ s⁻¹
  kd: 0.00026 s⁻¹
[7]
  ka: 870000 M⁻¹ s⁻¹
  kd: 0.00016 s⁻¹
[8]
  cross-reactivity pattern with HER family antigens: binding to the same human and cynomolgus antigen combined with lack of binding to the mouse antigen or to other EGFR family receptors
[9]
  anti-proliferative effect in combination with partner antibody, compared to mixture of the two chimeric parent antibodies: highly similar anti-proliferative effects

B5: antibody 10810: humanized anti-HER3 antibody from chimeric parent 5038; HC SEQ ID NO: 56, LC SEQ ID NO: 57 (antibody, V domains shown)
VH: QVQLQESGPGLVKPSQTLSLTCTVSGYSITSGFYWTWIRQHPGNGLEWIGFISYSGSNNYNPSLKNRVTISVDTSKNQFSLKLSSVTAADTATYYCARGGGYYGNLFDYWGQGTLVTVSS
VL: DIQMTQSPSSLSASVGDRVTITCRPSQDISNYVNWFQQKPGKAPKLLIFHTSRLHSGVPSRFSGSGSGTDFTLTISSLQPEDIATYYCQQGITLPWTFGQGTKVEIK
[6]
  ka: 470000 M⁻¹ s⁻¹
  kd: 0.00034 s⁻¹
[7]
  ka: 190000 M⁻¹ s⁻¹
  kd: 0.0002 s⁻¹
[8]
  cross-reactivity pattern with HER family antigens: binding to the same human and cynomolgus antigen combined with lack of binding to the mouse antigen or to other EGFR family receptors
[9]
  anti-proliferative effect in combination with partner antibody, compared to mixture of the two chimeric parent antibodies: highly similar anti-proliferative effects

B6: antibody 1565: chimeric parent anti-EGFR antibody disclosed in WO 2012/059857; VH SEQ ID NO: 19, light chain SEQ ID NO: 21 (antibody)
VH: RAEVQLQQSGTELVKPGASVILSCKASGYTFTSYWMQWVKQRPGQGLEWIGNINPSNGGTSFNEEFKSRATLTVDKSSSTAYMQLSSLTSEDSAVYYCARDGGLYDGYYFDFWGQGTTLTVS
light: LANIVMTQSHKFMSTLIGARVSITCKASQDVDTAVAWYQQKPGQSPKLLIYWASTRHTGVPDRFTGSGSGTDFSLTVSNVQSEDLTDYFCQQYSSYPLTFGAGTKLELKRTVAAPSVFIFPPSDEQLKSGTASVVCLLNNFYPREAKVQWKVDNALQSGNSQESVTEQDSKDSTYSLSSTLTLSKADYEKHKVYACEVTHQGLSSPVTKSFNRGEC
[4]
  ka: 580000 M⁻¹ s⁻¹
  kd: 0.016 s⁻¹
[5]
  EGFR, HER2 and HER3 levels in whole cell lysates: HER2 upregulation
